Laboratory results from US20070105162A1, “Monovalent avidin and streptavidin compositions” (Massachusetts Institute of Technology, priority 2005, published 2007).

Key:
[1] = Off-rate of 3H-biotin from streptavidin (cold biotin chase); assay type: binding; conditions: 50 μM cold biotin chase, 5 hours at 37° C., ± s.e.m.
Procedure: (Green, N. M. Methods in Enzymol. 184: 51-67, 1990). Dissociation was then initiated by addition of cold biotin at a final concentration of 50 μM and time-points taken over 5 hours at 37° C. 50 μL aliquots were removed and added to 200 μL 0.2M ZnSO4 chilled on ice, followed by 200 μL 0.2 M NaOH. The protein precipitate was pelleted by centrifugation at 16,500 g for 5 min, and ^3H-biotin in the supernatant was measured by liquid scintillation counting. Data were plotted as ln(fraction bound) versus time, and fit to a straight line by linear regression. Dissociation rates were deduced from the slope of the line and the equation: ln(fraction bound)=−koff(t) where fraction bound=(total ^3H-biotin−free ^3H-biotin at timepoint)/(total ^3H-biotin−free ^3H-biotin before cold biotin chase).

[2] = tested on: biotinylated AP-neuroligin-1 on hippocampal neurons; assay: AP-neuroligin-1 clustering in hippocampal neurons labeled with streptavidin; assay type: cell-based, rat; conditions: two hour incubation at 37° C., Alexa Fluor 568 conjugate; ± s.e.m., n=9
Procedure: HeLa cells were grown in Dulbecco's Modified Eagle Medium (DMEM) with 10% Fetal Calf Serum, 50 U/mL penicillin and 50 μg/mL streptomycin. HeLa stably expressing AP-CFP-TM or Ala-CFP-TM have been previously described (Howarth, M. et al., Proc. Natl. Acad. Sci. USA 102: 7583-7588, 2005). Dissociated primary neuronal cultures were prepared from Embryonic Day 18 or 19 (E18/19) rats and transfected with Lipofectamine 2000 at DIV6 as in Levinson et al. (Levinson, J. N. et al., J. Biol. Chem. 280: 17312-17319, 2005). […]
Images of HeLa cells were collected on a Zeiss Axiovert 200M inverted epifluorescence microscope using a 40× oil-immersion lens and a MicroMAX CCD camera (Roper Scientific; Tucson, Ariz.). CFP (420DF20 excitation, 450DRLP dichroic, 475DF40 emission) and Alexa568 (560DF20 excitation, 585DRLP dichroic, 605DF30 emission) images were collected and analyzed using OpenLab software (Improvision; Lexington, Mass.). Fluorescence images were background-corrected. […] Images were scaled to 16 bits and analyzed in Northern Eclipse (Empix Imaging; Ontario, Canada) with user-written software. […] Results were then calculated in terms of clusters per micrometer of dendrite. For assessment of pre-synaptic terminals, clusters were determined as before and average grey levels of clusters were compared between transfected dendrites and untransfected dendrites within the same field of view. […]

[3] = Thermostability assay of streptavidin tetramer (SDS-PAGE); assay type: physicochemical; conditions: 100° C., 3 min in PBS
[4] = Subunit exchange of monovalent streptavidin over time by SDS-PAGE; assay type: physicochemical; conditions: for A1D3 rearranged into D4: PBS
Procedure: Methods described in the Methods section above herein were used for the following production and testing of monovalent streptavidin. Tests were performed to determine whether monovalent streptavidin would rearrange its subunit composition over time.

[5] = Thermostability assay of avidin tetramer (SDS-PAGE); assay type: physicochemical; conditions: 100° C., PBS
Procedure: 2.3 μM wild-type avidin or chimeric avidin in PBS is heated at the indicated temperature for 3 min in a PTC-200 PCR machine (MJ Research; Waltham, Mass.) and then immediately placed on ice (Bayer, E. A. et al. Electrophoresis 17: 1319-1324, 1996). Samples are mixed with 6×SDS-PAGE loading buffer and loaded onto a 16% polyacrylamide gel.
(§1) Methods described in the Avidin Methods section above herein are used for the following production and testing of monovalent avidin. Tests are performed to determine whether monovalent avidin will rearrange its subunit composition over time. […] Wild-type avidin and A1D3 are heated in PBS at various temperatures and tetramer disassembly is determined by SDS-PAGE.

[6] = Subunit exchange of monovalent avidin over time by SDS-PAGE; assay type: physicochemical
Procedure: as §1

[7] = 37° C. one day or room temperature one week

A1D3: Monovalent streptavidin tetramer: one His6-tagged wild-type (A) subunit and three dead (D) subunits [Tetramer A1D3]
off-rate from biotin [1]: 6.14±0.19×10^−5 s^−1 | AP-neuroligin-1 clusters per micrometer of dendrite [2]: 0.087±0.021 clusters/μm | fraction remaining tetrameric on heating [3]: significant fraction | A1D3 rearranged into D4 ([4]; 37° C. incubation for one day): 2% | Formation of A2D2 from subunit exchange [4, 7]: not detected | A1D3 rearranged into D4 ([4]; room temperature incubation for one week): 3% | fraction remaining tetrameric on heating [5]: significant fraction | A1D3 avidin rearranged into D4 ([6]; 37° C. for one day or room temperature for one week): small percentage | Formation of A2D2 from subunit exchange [6, 7]: not detected
